{"source": "patent US20230303666A1", "molecular_target": "SARS-CoV-2 S on pseudotyped lentivirus (pCMV-SARS2deltaC-gp41) (SARS-CoV-2) (UniProt P0DTC2)", "assay": "cell-based or functional assay"}
{"substance": "Nb21.t (VHH)", "values": [{"measurement": "IC50 of pseudovirus neutralization", "value": 0.244, "unit": "nM"}]}
